{"source": "patent JPH09322796A", "about": "(dated 1997)", "key": {"[1]": {"target": "ヒトFas抗原の細胞外領域とマウスインターロイキン3受容体の細胞外領域との融合タンパク質 (fusion of human Fas extracellular region and mouse IL-3 receptor extracellular region, from phFas-AIC2) (human; mouse) (UniProt P25445)", "experiment": "ELISA, COS-1 supernatant with human Fas-mouse IL-3 receptor fusion coated, detection with peroxidase-labelled rat anti-mouse IgM; PBS blank 0.104"}, "[2]": {"target": "T1, Fas抗原 on the human lymphocyte cell line HPB−ALL (human, UniProt P25445 26-335)", "T1 sequence (looked up)": "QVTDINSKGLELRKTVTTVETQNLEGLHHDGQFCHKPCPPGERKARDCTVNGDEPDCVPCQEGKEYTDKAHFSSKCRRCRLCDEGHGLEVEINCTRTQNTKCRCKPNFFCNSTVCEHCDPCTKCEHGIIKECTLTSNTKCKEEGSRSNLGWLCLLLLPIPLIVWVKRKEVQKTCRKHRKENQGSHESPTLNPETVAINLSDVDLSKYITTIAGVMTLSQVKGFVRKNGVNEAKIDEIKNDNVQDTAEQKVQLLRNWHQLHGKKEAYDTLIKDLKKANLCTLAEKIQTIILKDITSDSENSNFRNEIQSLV", "experiment": "cell-based or functional assay"}}, "data": [{"binder": "マウス抗ヒトFasモノクローナル抗体CH11 (mouse anti-human Fas monoclonal antibody CH11, purified from hybridoma culture supernatant) (antibody, mouse IgM) heavy: EVQLQQSGPELVKPGASVKISCKASGYTFTDYNMHWVKQSHGKSLEWIGYIYPYNGGTGYNQKFKSKATLTVDNSSSTAYMELRSLTSEDSAVYYCARSYYAMDYWGQGTSVTVSSESQSFPNVFPLVSCESPLSDKNLVAMGCLARDFLPSTISFTWNYQNNTEVIQGIRTFPTLRTGGKYLATSQVLLSPKSILEGSDEYLVCKIHYGGKNRDLHVPIPAVAEMNPNVNVFVPPRDGFSGPAPRKSKLICEATNFTPKPITVSWLKDGKLVESGFTTDPVTIENKGSTPQTYKVISTLTISEIDWLNLNVYTCRVDHRGLTFLKNVSSTCAASPSTDILTFTIPPSFADIFLSKSANLTCLVSNLATYETLNISWASQSGEPLETKIKIMESHPNGTFSAKGVASVCVEDWNNRKEFVCTVTHRDLPSPQKKFISKPNEVHKHPPAVYLLPPAREQLNLRESATVTCLVKGFSPADISVQWLQRGQLLPQEKYVTSAPMPEPGAPGFYFTHSILTVTEEEWNSGETYTCVVGHEALPHLVTERTVDKSTGKPTLYNVSLIMSDTGGTCY light: DVVMTQSPLSLPVSLGDQASISCRSSKSLVHSNGNTYLHWYLQKPGQSPKLLIYKVSNRFSGVPDRFSGSGSGTDFTLKISRVEAEDLGVYFCSQSTHVPPAFGGGTKLEIKRADAAPTVSIFPPSSEQLTSGGASVVCFLNNFYPKDINVKWKIDGSERQNGVLNSWTDQDSKDSTYSMSSTLTLTKDEYERHNSYTCEATHKTSTSPIVKSFNRNEC DDEATILADNKCMCTRVTSRIIPSTEDPNEDIVERNIRIVVPLNNRENISDPTSPLRRNFVYHLSDVCKKCDPVEVELEDQVVTATQSNICNEDDGVPETCYMYDRNKCYTTMVPLRYHGETKMVQAALTPDSCYPD", "values": [{"measurement": "OD 405 −OD 492", "setting": "[1]", "result": 0.445}, {"measurement": "ED 50 (ng/ml) (MTT assay, HPB-ALL cells))", "setting": "[2]", "result": 21.2, "unit": "ng/mL"}]}, {"binder": "pLEX004のみで形質転換したCOS−1細胞の培養上清[C] (CH11 L chain expressed alone) (other) light: DVVMTQSPLSLPVSLGDQASISCRSSKSLVHSNGNTYLHWYLQKPGQSPKLLIYKVSNRFSGVPDRFSGSGSGTDFTLKISRVEAEDLGVYFCSQSTHVPPAFGGGTKLEIKRADAAPTVSIFPPSSEQLTSGGASVVCFLNNFYPKDINVKWKIDGSERQNGVLNSWTDQDSKDSTYSMSSTLTLTKDEYERHNSYTCEATHKTSTSPIVKSFNRNEC", "values": [{"measurement": "OD 405 −OD 492", "setting": "[1]", "result": 0.135}, {"measurement": "OD 590 −OD 620 (MTT assay, HPB-ALL cells, 12 h; higher = more living cells)", "setting": "[2]", "result": 0.887}]}, {"binder": "pHEX126のみで形質転換したCOS−1細胞の培養上清[B] (CH11 H chain expressed alone) (other) heavy: EVQLQQSGPELVKPGASVKISCKASGYTFTDYNMHWVKQSHGKSLEWIGYIYPYNGGTGYNQKFKSKATLTVDNSSSTAYMELRSLTSEDSAVYYCARSYYAMDYWGQGTSVTVSSESQSFPNVFPLVSCESPLSDKNLVAMGCLARDFLPSTISFTWNYQNNTEVIQGIRTFPTLRTGGKYLATSQVLLSPKSILEGSDEYLVCKIHYGGKNRDLHVPIPAVAEMNPNVNVFVPPRDGFSGPAPRKSKLICEATNFTPKPITVSWLKDGKLVESGFTTDPVTIENKGSTPQTYKVISTLTISEIDWLNLNVYTCRVDHRGLTFLKNVSSTCAASPSTDILTFTIPPSFADIFLSKSANLTCLVSNLATYETLNISWASQSGEPLETKIKIMESHPNGTFSAKGVASVCVEDWNNRKEFVCTVTHRDLPSPQKKFISKPNEVHKHPPAVYLLPPAREQLNLRESATVTCLVKGFSPADISVQWLQRGQLLPQEKYVTSAPMPEPGAPGFYFTHSILTVTEEEWNSGETYTCVVGHEALPHLVTERTVDKSTGKPTLYNVSLIMSDTGGTCY", "values": [{"measurement": "OD 405 −OD 492", "setting": "[1]", "result": 0.109}, {"measurement": "OD 590 −OD 620 (MTT assay, HPB-ALL cells, 12 h; higher = more living cells)", "setting": "[2]", "result": 0.876}]}, {"binder": "pJEX004のみで形質転換したCOS−1細胞の培養上清[D] (CH11 J chain expressed alone) (other) DDEATILADNKCMCTRVTSRIIPSTEDPNEDIVERNIRIVVPLNNRENISDPTSPLRRNFVYHLSDVCKKCDPVEVELEDQVVTATQSNICNEDDGVPETCYMYDRNKCYTTMVPLRYHGETKMVQAALTPDSCYPD", "values": [{"measurement": "OD 405 −OD 492", "setting": "[1]", "result": 0.107}, {"measurement": "OD 590 −OD 620 (MTT assay, HPB-ALL cells, 12 h; higher = more living cells)", "setting": "[2]", "result": 0.883}]}, {"binder": "上清[E](pHEX126+pLEX004)に含まれる生産物 (recombinant CH11 H chain + L chain without J chain, COS-1 culture supernatant) (antibody) heavy: EVQLQQSGPELVKPGASVKISCKASGYTFTDYNMHWVKQSHGKSLEWIGYIYPYNGGTGYNQKFKSKATLTVDNSSSTAYMELRSLTSEDSAVYYCARSYYAMDYWGQGTSVTVSSESQSFPNVFPLVSCESPLSDKNLVAMGCLARDFLPSTISFTWNYQNNTEVIQGIRTFPTLRTGGKYLATSQVLLSPKSILEGSDEYLVCKIHYGGKNRDLHVPIPAVAEMNPNVNVFVPPRDGFSGPAPRKSKLICEATNFTPKPITVSWLKDGKLVESGFTTDPVTIENKGSTPQTYKVISTLTISEIDWLNLNVYTCRVDHRGLTFLKNVSSTCAASPSTDILTFTIPPSFADIFLSKSANLTCLVSNLATYETLNISWASQSGEPLETKIKIMESHPNGTFSAKGVASVCVEDWNNRKEFVCTVTHRDLPSPQKKFISKPNEVHKHPPAVYLLPPAREQLNLRESATVTCLVKGFSPADISVQWLQRGQLLPQEKYVTSAPMPEPGAPGFYFTHSILTVTEEEWNSGETYTCVVGHEALPHLVTERTVDKSTGKPTLYNVSLIMSDTGGTCY light: DVVMTQSPLSLPVSLGDQASISCRSSKSLVHSNGNTYLHWYLQKPGQSPKLLIYKVSNRFSGVPDRFSGSGSGTDFTLKISRVEAEDLGVYFCSQSTHVPPAFGGGTKLEIKRADAAPTVSIFPPSSEQLTSGGASVVCFLNNFYPKDINVKWKIDGSERQNGVLNSWTDQDSKDSTYSMSSTLTLTKDEYERHNSYTCEATHKTSTSPIVKSFNRNEC", "values": [{"measurement": "OD 405 −OD 492", "setting": "[1]", "result": 0.33}, {"measurement": "cytotoxic activity relative to CH11 or to the product of supernatant [F]", "setting": "[2]", "result": "~5", "unit": "fold"}, {"measurement": "ED 50 (ng/ml) (MTT assay, HPB-ALL cells))", "setting": "[2]", "result": 4.5, "unit": "ng/mL"}, {"measurement": "OD 590 −OD 620 (MTT assay, HPB-ALL cells, 12 h; higher = more living cells)", "setting": "[2]", "result": 0.176}]}, {"binder": "上清[F](pHEX126、pLEX004+pJEX004)に含まれる生産物 (recombinant CH11 H chain + L chain + J chain, COS-1 culture supernatant) (antibody) heavy: EVQLQQSGPELVKPGASVKISCKASGYTFTDYNMHWVKQSHGKSLEWIGYIYPYNGGTGYNQKFKSKATLTVDNSSSTAYMELRSLTSEDSAVYYCARSYYAMDYWGQGTSVTVSSESQSFPNVFPLVSCESPLSDKNLVAMGCLARDFLPSTISFTWNYQNNTEVIQGIRTFPTLRTGGKYLATSQVLLSPKSILEGSDEYLVCKIHYGGKNRDLHVPIPAVAEMNPNVNVFVPPRDGFSGPAPRKSKLICEATNFTPKPITVSWLKDGKLVESGFTTDPVTIENKGSTPQTYKVISTLTISEIDWLNLNVYTCRVDHRGLTFLKNVSSTCAASPSTDILTFTIPPSFADIFLSKSANLTCLVSNLATYETLNISWASQSGEPLETKIKIMESHPNGTFSAKGVASVCVEDWNNRKEFVCTVTHRDLPSPQKKFISKPNEVHKHPPAVYLLPPAREQLNLRESATVTCLVKGFSPADISVQWLQRGQLLPQEKYVTSAPMPEPGAPGFYFTHSILTVTEEEWNSGETYTCVVGHEALPHLVTERTVDKSTGKPTLYNVSLIMSDTGGTCY light: DVVMTQSPLSLPVSLGDQASISCRSSKSLVHSNGNTYLHWYLQKPGQSPKLLIYKVSNRFSGVPDRFSGSGSGTDFTLKISRVEAEDLGVYFCSQSTHVPPAFGGGTKLEIKRADAAPTVSIFPPSSEQLTSGGASVVCFLNNFYPKDINVKWKIDGSERQNGVLNSWTDQDSKDSTYSMSSTLTLTKDEYERHNSYTCEATHKTSTSPIVKSFNRNEC DDEATILADNKCMCTRVTSRIIPSTEDPNEDIVERNIRIVVPLNNRENISDPTSPLRRNFVYHLSDVCKKCDPVEVELEDQVVTATQSNICNEDDGVPETCYMYDRNKCYTTMVPLRYHGETKMVQAALTPDSCYPD", "values": [{"measurement": "OD 405 −OD 492", "setting": "[1]", "result": 0.202}, {"measurement": "ED 50 (ng/ml) (MTT assay, HPB-ALL cells))", "setting": "[2]", "result": 22.9, "unit": "ng/mL"}, {"measurement": "OD 590 −OD 620 (MTT assay, HPB-ALL cells, 12 h; higher = more living cells)", "setting": "[2]", "result": 0.242}]}]}
